Where two headings read alike, the source gives them in different places.
Assays:
[1] = In vivo biodistribution of ^203Pb-labeled peptides; parameters: species or system mice; conditions: female, athymic nu/nu, mouse, 37 kBq, total radioactivity; for tissue uptake at 1 h / tissue uptake at 3 h / tissue uptake at 24 h: intravenous; for tissue uptake at 1 h / tissue to tissue ratio at 1 h: 1 h post-administration; for tissue uptake at 3 h / tissue to tissue ratio at 3 h: 3 h post-administration; for tissue uptake at 24 h / tissue to tissue ratio at 24 h: 24 h post-administration; for tissue to tissue ratio at 1 h / tissue to tissue ratio at 3 h / tissue to tissue ratio at 24 h: iv
Experimental: AR42J cells (5.0 × 10^6 cells/animal) were implanted subcutaneously on the left shoulder of female athymic nu/nu mice. […] Extra groups of mice were co-administered 37 kBq of ^203Pb-PSC-PEG2-TOC with DL-lysine (400 mg/kg) to determine the effect of amino acid on renal uptake of the radiopharmaceutical. Mice (n=3 per time point) were euthanized at 1, 3, and 24 h post-administration, and tumors and organs/tissues of interest were excised and weighed. The radioactivities of the samples were measured using the gamma counter.

AR42J cells = experiment: Cellular uptake of ^203Pb-labeled peptides; format: cell-based, rat; conditions: 2 h post-incubation
Experimental: PSCTOC and PSC-PEG2-TOC were labeled with ^203Pb and purified via HPLC for high molar activities as descibed in the Supplementary Material and in Li and collaborators. The HPLC-purified ^203Pb-labeled peptides (3.4 kBq) were incubated with AR42J cells in 24-well plates (pre-coated with poly-D-lysine), which were plated at a density of 2.0 × 10^5 cells 2 days prior, in the binding medium at 37 °C for up to 120 min. The cells were then washed twice and lysed, and the radioactivities of the samples were determined (n=3).

[2] = large intestine, read-out: Large intestine
[3] = small intestine, read-out: Small intestine
[4] = tumor/blood, read-out: Tumor/blood ratio
[5] = tumor/kidneys, read-out: Tumor/kidneys ratio
[6] = tumor/liver, read-out: Tumor/liver ratio
[7] = tumor/lung, read-out: Tumor/lung ratio
[8] = tumor/muscle, read-out: Tumor/muscle ratio

C[C@@H](O)[C@@H]1NC(=O)[C@H](CCCCN)NC(=O)[C@@H](Cc2c[nH]c3ccccc23)NC(=O)[C@H](Cc2ccc(O)cc2)NC(=O)[C@@H](NC(=O)[C@@H](Cc2ccccc2)NC(=O)CN2CCN(CC(=O)O)CCN(CC(N)=O)CCN(CC(=O)O)CC2)CSSC[C@@H](C(=O)N[C@H](CO)[C@@H](C)O)NC1=O [[^203Pb]Pb-PSCTOC, metal not drawn]
tissue uptake at 1 h ([1]; blood, read-out: Blood): 0.53 ± 0.06 %ID/g
tissue uptake at 3 h ([1]; blood, read-out: Blood): 0.03 ± 0.01 %ID/g
tissue uptake at 24 h ([1]; blood, read-out: Blood): 0.01 %ID/g
tissue uptake at 1 h ([1]; brain, read-out: Brain): 0.16 ± 0.16 %ID/g
tissue uptake at 3 h ([1]; brain, read-out: Brain): 0.01 %ID/g
tissue uptake at 24 h ([1]; brain, read-out: Brain): 0.02 %ID/g
tissue uptake at 1 h ([1]; heart, read-out: Heart): 0.32 ± 0.02 %ID/g
tissue uptake at 3 h ([1]; heart, read-out: Heart): 0.07 %ID/g
tissue uptake at 24 h ([1]; heart, read-out: Heart): 0.05 ± 0.01 %ID/g
tissue uptake at 1 h ([1]; kidneys, read-out: Kidneys): 13.6 ± 0.75 %ID/g
tissue uptake at 3 h ([1]; kidneys, read-out: Kidneys): 8.35 ± 1.33 %ID/g
tissue uptake at 24 h ([1]; kidneys, read-out: Kidneys): 5.59 ± 1.3 %ID/g
tissue uptake at 1 h [1, 2]: 0.77 ± 0.04 %ID/g
tissue uptake at 3 h [1, 2]: 3.1 ± 0.12 %ID/g
tissue uptake at 24 h [1, 2]: 0.45 ± 0.03 %ID/g
tissue uptake at 1 h ([1]; liver, read-out: Liver): 0.44 ± 0.02 %ID/g
tissue uptake at 3 h ([1]; liver, read-out: Liver): 0.19 ± 0.03 %ID/g
tissue uptake at 24 h ([1]; liver, read-out: Liver): 0.14 %ID/g
tissue uptake at 1 h ([1]; lung, read-out: Lung): 5.06 ± 0.74 %ID/g
tissue uptake at 3 h ([1]; lung, read-out: Lung): 1.09 ± 0.36 %ID/g
tissue uptake at 24 h ([1]; lung, read-out: Lung): 1.39 ± 0.27 %ID/g
tissue uptake at 1 h ([1]; muscle, read-out: Muscle): 0.25 ± 0.06 %ID/g
tissue uptake at 3 h ([1]; muscle, read-out: Muscle): 0.05 ± 0.03 %ID/g
tissue uptake at 24 h ([1]; muscle, read-out: Muscle): 0.03 ± 0.01 %ID/g
tissue uptake at 1 h [1, 3]: 1.38 ± 0.07 %ID/g
tissue uptake at 3 h [1, 3]: 2.85 ± 2.25 %ID/g
tissue uptake at 24 h [1, 3]: 0.12 ± 0.01 %ID/g
tissue uptake at 1 h ([1]; spleen, read-out: Spleen): 0.7 ± 0.13 %ID/g
tissue uptake at 3 h ([1]; spleen, read-out: Spleen): 0.35 ± 0.12 %ID/g
tissue uptake at 24 h ([1]; spleen, read-out: Spleen): 0.24 ± 0.03 %ID/g
tissue uptake at 1 h ([1]; tumor, read-out: Tumor): 19.1 ± 3.31 %ID/g
tissue uptake at 3 h ([1]; tumor, read-out: Tumor): 16.2 ± 1.76 %ID/g
tissue uptake at 24 h ([1]; tumor, read-out: Tumor): 8.65 ± 0.7 %ID/g
tissue to tissue ratio at 1 h [1, 4]: 36.1
tissue to tissue ratio at 3 h [1, 4]: 540
tissue to tissue ratio at 24 h [1, 4]: 865
tissue to tissue ratio at 1 h [1, 5]: 1.41
tissue to tissue ratio at 3 h [1, 5]: 1.94
tissue to tissue ratio at 24 h [1, 5]: 1.55
tissue to tissue ratio at 1 h [1, 6]: 43.5
tissue to tissue ratio at 3 h [1, 6]: 85.3
tissue to tissue ratio at 24 h [1, 6]: 61.8
tissue to tissue ratio at 1 h [1, 7]: 3.78
tissue to tissue ratio at 3 h [1, 7]: 14.9
tissue to tissue ratio at 24 h [1, 7]: 6.22
tissue to tissue ratio at 1 h [1, 8]: 76.6
tissue to tissue ratio at 3 h [1, 8]: 324
tissue to tissue ratio at 24 h [1, 8]: 288
Cellular uptake, fold vs. [^203Pb]Pb-DOTATOC (AR42J cells): 6 fold
Cellular uptake (AR42J cells; 37 °C): 5%
